According to patent publication US20200079833A1 (AstraZeneca / MedImmune, published 2020):
Starred links: 1 amine or outer side, 2 acyl side, 3 side chain; linkers in the order of their positions; H or OH if unused. Non-standard residues stand in square brackets, D forms with d. Groups on a side chain read outwards from the residue. Primed or numbered codes have the meaning given here. No end group written: not given here. *: point of attachment. γGlu = O=C(O)[C@H](CCC(=O)[*:2])N[*:1]; αMeF = C[C@](N)(Cc1ccccc1)C(=O)O; αMeK = C[C@](N)(CCCCN)C(=O)O; Lauroyl = CCCCCCCCCCCC(=O)*; αMeS = C[C@](N)(CO)C(=O)O; PEG2′ = not defined here; Aib = CC(C)(N)C(=O)O; Ahx = NCCCCCC(=O)O

T1: glucose-dependent insulinotropic peptide (gastric inhibitory polypeptide) receptor (GIPR) (human, UniProt P48546 22-466)
T1 sequence (looked up): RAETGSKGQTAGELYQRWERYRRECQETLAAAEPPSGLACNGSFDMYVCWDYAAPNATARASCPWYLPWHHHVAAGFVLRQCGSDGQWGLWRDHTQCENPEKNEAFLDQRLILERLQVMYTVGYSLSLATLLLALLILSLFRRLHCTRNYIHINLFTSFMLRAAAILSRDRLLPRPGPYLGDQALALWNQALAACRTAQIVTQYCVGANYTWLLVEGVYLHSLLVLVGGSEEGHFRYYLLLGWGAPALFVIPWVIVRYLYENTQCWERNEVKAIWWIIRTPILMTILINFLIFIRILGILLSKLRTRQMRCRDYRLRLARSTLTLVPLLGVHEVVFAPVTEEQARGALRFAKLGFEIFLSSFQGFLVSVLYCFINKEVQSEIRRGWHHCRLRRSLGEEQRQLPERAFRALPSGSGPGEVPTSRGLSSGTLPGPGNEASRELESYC

B1: SEQ ID NO 167 (peptide)
peptide: H[Aib]EGS[αMeF]TSDV[αMeS]S[αMeF]LEGEAA[αMeK]E[αMeF]IA[αMeF]VVK([Ahx-Lauroyl])GG-NH2
modifications: N-terminus assumed
SMILES: CCCCCCCCCCCC(=O)NCCCCCC(=O)NCCCC[C@H](NC(=O)[C@@H](NC(=O)[C@@H](NC(=O)[C@](C)(Cc1ccccc1)NC(=O)[C@H](C)NC(=O)[C@@H](NC(=O)[C@](C)(Cc1ccccc1)NC(=O)[C@H](CCC(=O)O)NC(=O)[C@](C)(CCCCN)NC(=O)[C@H](C)NC(=O)[C@H](C)NC(=O)[C@H](CCC(=O)O)NC(=O)CNC(=O)[C@H](CCC(=O)O)NC(=O)[C@H](CC(C)C)NC(=O)[C@](C)(Cc1ccccc1)NC(=O)[C@H](CO)NC(=O)[C@](C)(CO)NC(=O)[C@@H](NC(=O)[C@H](CC(=O)O)NC(=O)[C@H](CO)NC(=O)[C@@H](NC(=O)[C@](C)(Cc1ccccc1)NC(=O)[C@H](CO)NC(=O)CNC(=O)[C@H](CCC(=O)O)NC(=O)C(C)(C)NC(=O)[C@@H](N)Cc1c[nH]cn1)[C@@H](C)O)C(C)C)[C@@H](C)CC)C(C)C)C(C)C)C(=O)NCC(=O)NCC(N)=O
B2: SEQ ID NO 168 (peptide)
peptide: H[Aib]EGS[αMeF]TSDV[αMeS]S[αMeF]LEGEAA[αMeK]E[αMeF]IA[αMeF]VVK([Ahx-Ahx-Lauroyl])GG-NH2
modifications: N-terminus assumed
SMILES: CCCCCCCCCCCC(=O)NCCCCCC(=O)NCCCCCC(=O)NCCCC[C@H](NC(=O)[C@@H](NC(=O)[C@@H](NC(=O)[C@](C)(Cc1ccccc1)NC(=O)[C@H](C)NC(=O)[C@@H](NC(=O)[C@](C)(Cc1ccccc1)NC(=O)[C@H](CCC(=O)O)NC(=O)[C@](C)(CCCCN)NC(=O)[C@H](C)NC(=O)[C@H](C)NC(=O)[C@H](CCC(=O)O)NC(=O)CNC(=O)[C@H](CCC(=O)O)NC(=O)[C@H](CC(C)C)NC(=O)[C@](C)(Cc1ccccc1)NC(=O)[C@H](CO)NC(=O)[C@](C)(CO)NC(=O)[C@@H](NC(=O)[C@H](CC(=O)O)NC(=O)[C@H](CO)NC(=O)[C@@H](NC(=O)[C@](C)(Cc1ccccc1)NC(=O)[C@H](CO)NC(=O)CNC(=O)[C@H](CCC(=O)O)NC(=O)C(C)(C)NC(=O)[C@@H](N)Cc1c[nH]cn1)[C@@H](C)O)C(C)C)[C@@H](C)CC)C(C)C)C(C)C)C(=O)NCC(=O)NCC(N)=O
B3: SEQ ID NO 169 (peptide)
peptide: H[Aib]EGS[αMeF]TSDV[αMeS]S[αMeF]LEGEAA[αMeK]E[αMeF]IA[αMeF]VVK([Ahx-Ahx-Ahx-Lauroyl])GG-NH2
modifications: N-terminus assumed
SMILES: CCCCCCCCCCCC(=O)NCCCCCC(=O)NCCCCCC(=O)NCCCCCC(=O)NCCCC[C@H](NC(=O)[C@@H](NC(=O)[C@@H](NC(=O)[C@](C)(Cc1ccccc1)NC(=O)[C@H](C)NC(=O)[C@@H](NC(=O)[C@](C)(Cc1ccccc1)NC(=O)[C@H](CCC(=O)O)NC(=O)[C@](C)(CCCCN)NC(=O)[C@H](C)NC(=O)[C@H](C)NC(=O)[C@H](CCC(=O)O)NC(=O)CNC(=O)[C@H](CCC(=O)O)NC(=O)[C@H](CC(C)C)NC(=O)[C@](C)(Cc1ccccc1)NC(=O)[C@H](CO)NC(=O)[C@](C)(CO)NC(=O)[C@@H](NC(=O)[C@H](CC(=O)O)NC(=O)[C@H](CO)NC(=O)[C@@H](NC(=O)[C@](C)(Cc1ccccc1)NC(=O)[C@H](CO)NC(=O)CNC(=O)[C@H](CCC(=O)O)NC(=O)C(C)(C)NC(=O)[C@@H](N)Cc1c[nH]cn1)[C@@H](C)O)C(C)C)[C@@H](C)CC)C(C)C)C(C)C)C(=O)NCC(=O)NCC(N)=O
B4: SEQ ID NO 164 (peptide)
peptide: H[Aib]EGS[αMeF]TSDV[αMeS]S[αMeF]LEGEAA[αMeK]E[αMeF]IA[αMeF]VVK([γGlu-Lauroyl])GG-NH2
modifications: N-terminus assumed
SMILES: CCCCCCCCCCCC(=O)N[C@@H](CCC(=O)NCCCC[C@H](NC(=O)[C@@H](NC(=O)[C@@H](NC(=O)[C@](C)(Cc1ccccc1)NC(=O)[C@H](C)NC(=O)[C@@H](NC(=O)[C@](C)(Cc1ccccc1)NC(=O)[C@H](CCC(=O)O)NC(=O)[C@](C)(CCCCN)NC(=O)[C@H](C)NC(=O)[C@H](C)NC(=O)[C@H](CCC(=O)O)NC(=O)CNC(=O)[C@H](CCC(=O)O)NC(=O)[C@H](CC(C)C)NC(=O)[C@](C)(Cc1ccccc1)NC(=O)[C@H](CO)NC(=O)[C@](C)(CO)NC(=O)[C@@H](NC(=O)[C@H](CC(=O)O)NC(=O)[C@H](CO)NC(=O)[C@@H](NC(=O)[C@](C)(Cc1ccccc1)NC(=O)[C@H](CO)NC(=O)CNC(=O)[C@H](CCC(=O)O)NC(=O)C(C)(C)NC(=O)[C@@H](N)Cc1c[nH]cn1)[C@@H](C)O)C(C)C)[C@@H](C)CC)C(C)C)C(C)C)C(=O)NCC(=O)NCC(N)=O)C(=O)O
B5: SEQ ID NO 165 (peptide)
peptide: H[Aib]EGS[αMeF]TSDV[αMeS]S[αMeF]LEGEAA[αMeK]E[αMeF]IA[αMeF]VVK([γGlu-γGlu-Lauroyl])GG-NH2
modifications: N-terminus assumed
SMILES: CCCCCCCCCCCC(=O)N[C@@H](CCC(=O)N[C@@H](CCC(=O)NCCCC[C@H](NC(=O)[C@@H](NC(=O)[C@@H](NC(=O)[C@](C)(Cc1ccccc1)NC(=O)[C@H](C)NC(=O)[C@@H](NC(=O)[C@](C)(Cc1ccccc1)NC(=O)[C@H](CCC(=O)O)NC(=O)[C@](C)(CCCCN)NC(=O)[C@H](C)NC(=O)[C@H](C)NC(=O)[C@H](CCC(=O)O)NC(=O)CNC(=O)[C@H](CCC(=O)O)NC(=O)[C@H](CC(C)C)NC(=O)[C@](C)(Cc1ccccc1)NC(=O)[C@H](CO)NC(=O)[C@](C)(CO)NC(=O)[C@@H](NC(=O)[C@H](CC(=O)O)NC(=O)[C@H](CO)NC(=O)[C@@H](NC(=O)[C@](C)(Cc1ccccc1)NC(=O)[C@H](CO)NC(=O)CNC(=O)[C@H](CCC(=O)O)NC(=O)C(C)(C)NC(=O)[C@@H](N)Cc1c[nH]cn1)[C@@H](C)O)C(C)C)[C@@H](C)CC)C(C)C)C(C)C)C(=O)NCC(=O)NCC(N)=O)C(=O)O)C(=O)O
B6: SEQ ID NO 166 (peptide)
peptide: H[Aib]EGS[αMeF]TSDV[αMeS]S[αMeF]LEGEAA[αMeK]E[αMeF]IA[αMeF]VVK([γGlu-γGlu-γGlu-Lauroyl])GG-NH2
modifications: N-terminus assumed
SMILES: CCCCCCCCCCCC(=O)N[C@@H](CCC(=O)N[C@@H](CCC(=O)N[C@@H](CCC(=O)NCCCC[C@H](NC(=O)[C@@H](NC(=O)[C@@H](NC(=O)[C@](C)(Cc1ccccc1)NC(=O)[C@H](C)NC(=O)[C@@H](NC(=O)[C@](C)(Cc1ccccc1)NC(=O)[C@H](CCC(=O)O)NC(=O)[C@](C)(CCCCN)NC(=O)[C@H](C)NC(=O)[C@H](C)NC(=O)[C@H](CCC(=O)O)NC(=O)CNC(=O)[C@H](CCC(=O)O)NC(=O)[C@H](CC(C)C)NC(=O)[C@](C)(Cc1ccccc1)NC(=O)[C@H](CO)NC(=O)[C@](C)(CO)NC(=O)[C@@H](NC(=O)[C@H](CC(=O)O)NC(=O)[C@H](CO)NC(=O)[C@@H](NC(=O)[C@](C)(Cc1ccccc1)NC(=O)[C@H](CO)NC(=O)CNC(=O)[C@H](CCC(=O)O)NC(=O)C(C)(C)NC(=O)[C@@H](N)Cc1c[nH]cn1)[C@@H](C)O)C(C)C)[C@@H](C)CC)C(C)C)C(C)C)C(=O)NCC(=O)NCC(N)=O)C(=O)O)C(=O)O)C(=O)O

Target: glucagon receptor (GCGR) (human, UniProt P47871 26-477)
Test: cell-based or functional assay

Chain of glucagon receptor (GCGR) (P47871 26-477): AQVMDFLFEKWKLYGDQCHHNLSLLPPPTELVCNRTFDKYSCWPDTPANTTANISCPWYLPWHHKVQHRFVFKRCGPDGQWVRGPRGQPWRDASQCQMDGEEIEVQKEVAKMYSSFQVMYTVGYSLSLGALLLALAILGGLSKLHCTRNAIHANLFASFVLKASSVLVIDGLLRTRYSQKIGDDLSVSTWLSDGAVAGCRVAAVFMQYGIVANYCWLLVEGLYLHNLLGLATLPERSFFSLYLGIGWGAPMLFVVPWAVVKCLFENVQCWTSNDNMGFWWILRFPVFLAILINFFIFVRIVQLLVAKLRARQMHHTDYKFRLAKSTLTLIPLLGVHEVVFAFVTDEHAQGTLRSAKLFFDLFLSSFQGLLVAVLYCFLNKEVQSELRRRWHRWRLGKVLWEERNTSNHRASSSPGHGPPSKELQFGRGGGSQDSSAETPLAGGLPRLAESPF

Primary assay EC50 (cAMP), Gluc-R, first run	Primary assay EC50 (cAMP), Gluc-R, second run	Binder
29 nM	29 nM	B1
28 nM	28 nM	B2
27 nM	27 nM	B3
28 nM	28 nM	H[Aib]EGS[αMeF]TSDV[αMeS]S[αMeF]LEGEAA[αMeK]E[αMeF]IA[αMeF]VVK([PEG2′-Lauroyl])GG-NH2 [SEQ ID NO 170]
28 nM	28 nM	B4
27 nM	27 nM	B5
26 nM	26 nM	B6

Target: T1, glucose-dependent insulinotropic …
Test: cell-based or functional assay

Primary assay EC50 (cAMP), GIP-R, first run	Primary assay EC50 (cAMP), GIP-R, second run	Binder
29 nM	29 nM	B1
28 nM	28 nM	B2
27 nM	27 nM	B3
28 nM	28 nM	H[Aib]EGS[αMeF]TSDV[αMeS]S[αMeF]LEGEAA[αMeK]E[αMeF]IA[αMeF]VVK([PEG2′-Lauroyl])GG-NH2 [SEQ ID NO 170]
28 nM	28 nM	B4
27 nM	27 nM	B5
26 nM	26 nM	B6

Target: GLP-1 receptor (GLP-1R) (human, UniProt P43220 24-463)
Test: cell-based or functional assay

Primary assay EC50 (cAMP), GLP-1R n1	Primary assay EC50 (cAMP), GLP-1R n2	Primary assay EC50 (cAMP), Mean pM GLP-1R	Binder
0.013 nM	0.0069 nM	10 pM	B1
0.0051 nM	0.0026 nM	3.8 pM	B2
0.0034 nM	0.0017 nM	2.6 pM	B3
0.008 nM	0.0045 nM	6.2 pM	H[Aib]EGS[αMeF]TSDV[αMeS]S[αMeF]LEGEAA[αMeK]E[αMeF]IA[αMeF]VVK([PEG2′-Lauroyl])GG-NH2 [SEQ ID NO 170]
0.022 nM	0.0078 nM	14.6 pM	B4
0.014 nM	0.006 nM	10.2 pM	B5
0.0072 nM	0.0027 nM	4.9 pM	B6
